± gives the uncertainty stated by the source.
experiment: amyloid nucleation score (Sup35N fusion, yeast selection) (log enrichment); library NNK1; higher = more nucleation; inactive = no reads after selection
Summary of the method: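 Yeast lacking psi expressed peptides of 20 random codons fused to Sup35N, received 100 μM copper sulfate for 24 hours, and were then grown for 7 days at 30°C on medium lacking adenine and uracil. Illumina sequencing of input and output plasmid inserts provided the reads. Nucleation scores are DiMSum log enrichments of output over input, centred on the mode of non-aggregating sequences. Any sequence with under 100 input reads was excluded.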

Row | Substance | amyloid nucleation score
1 | KMRCDGLEQRLRSQSDLLAP | 0.374 ± 0.45
2 | MTFVMHIAWG | 1.55 ± 0.26
3 | FRGFR | -0.235 ± 0.4
4 | WESEFYLGLELERVAGGSGG | -1.03 ± 2.7
5 | ICVCKDVCGLYRCLLGTGGS | 1.13 ± 0.57
6 | NCRMTGCLSQRRQKECCNRI | -0.755 ± 0.51
7 | SRSIRSYDPWMVCMSMWLSD | 1.13 ± 0.9
8 | IYRLDTI | -0.864 ± 0.75
9 | KVLTRPG | -0.213 ± 0.64
10 | YRSFCFRWWISSGCAGLRGS | 0.489 ± 0.67
11 | LLNQFLTRSASYTRGTESID | 0.295 ± 0.24
12 | YRYSVQVLNCAKGAENGVII | -0.152 ± 0.32
13 | SQMLELVFK | 0.818 ± 0.75
14 | VTHGHVGTVGSWVVRTTAFM | -0.937 ± 2.1
15 | HYAVGRARNLGCLDLSQ | 0.064 ± 0.48
16 | MMFAKDSI | 0.372 ± 0.47
17 | VLGRRKMIQVNFNFKYLSWD | 1.62 ± 0.45
18 | YRMGLGS | -0.455 ± 0.96
19 | LSCKSVVPLSNSWYAIVLRL | 1.19 ± 0.29
20 | MFVGGRTNTQMYHMDVVPFQ | 1.13 ± 0.63
21 | HDNISLG | 3.39 ± 0.12
22 | MNSVGAGWFGLRCNYRAHEA | 0.252 ± 1.1
23 | LYFVCIFPYRVRTECSEQSR | 4.32 ± 0.095
24 | GRQGYMAYFVMALLLCIFTH | 0.128 ± 0.48
25 | AWMGLKNVN | 1.59 ± 0.69

Row | Substance | amyloid nucleation score
26 | KMGWLRH | -0.566 ± 0.5
27 | VMDYYTMFFEMPRGRALIAN | inactive
28 | PQGLTSSSMGLTSANHSAA | 0.637 ± 0.88
29 | LIKGWSYPGVPCVGLLMDGK | 0.27 ± 0.33
30 | TLVLSLAHPCASGNKPDKSG | 0.863 ± 0.32
31 | TSIFCGSLLGAKVDSTPVPV | -1.27 ± 2.4
32 | TVLSSFLLKLRLTIVSCFLR | -0.082 ± 0.65
33 | NFGIRGRRTAGLEVRCLRRC | -1.22 ± 2.7
34 | VYKCSQVDRVCKMAWVGLKS | 0.205 ± 0.34
35 | PACFSGCEVGFASDMCVLEL | 0.947 ± 0.42
36 | SFFSSVVDF | 0.2 ± 0.63
37 | WGCRV | -0.451 ± 0.58
38 | LSLRDLGSLALRGLKMNATR | -0.397 ± 0.91
39 | LSRTSKSPFGGEFLERHIYI | -0.42 ± 1
40 | KAMCYKMSFCNYDSRVYTED | 4.53 ± 0.06
41 | KVFGTRPVRYETCRFLRLRS | -0.013 ± 0.34
42 | AGSDGQGDGEQWRNHLRPIA | -0.294 ± 0.64
43 | SYILEKGLQTAYCVC | 1.42 ± 0.46
44 | DWRFSGALRLSLMHTYQ | 4.09 ± 0.072
45 | IDFKGTKKLLSDRAPVGDST | 0.549 ± 1
46 | WVNCLFIYWFCFDALPIIVE | -0.616 ± 0.4
47 | TRLGYFNFGSLHVSLWDFML | 0.6 ± 0.28
48 | GMVSIII | 0.276 ± 0.51
49 | CCGGECLRVYRIMLGTVECT | 0.329 ± 0.28
50 | SSGAYSLSKWYQYRMFSVVL | -0.771 ± 0.66

Row | Substance | amyloid nucleation score
51 | RICKGIAGKSENCNTLYNSS | inactive
52 | RWKRVIMSQHQVVYVNSWMV | -0.484 ± 1.9
53 | VCKGVYNMPCSTPNLYDSAG | -0.563 ± 0.79
54 | SKYLCNMLPISDLHMGQTFN | -0.391 ± 0.44
55 | AKSVYILVR | inactive
56 | HCRNS | 2 ± 0.3
57 | FQNELCKTDIWFRVREWESE | 0.196 ± 1.2
58 | VSSHSMGFIVSVVMTCEYRS | 1.23 ± 0.7
59 | VKCGLG | 0.696 ± 0.84
60 | ASYGIIVSSLFFNGRGCHWS | 3.81 ± 0.096
61 | ISVMEFFVISGFTNWVKCFV | 1.06 ± 0.31
62 | LGHGHIDGQYKGYRVKWTYD | -0.644 ± 0.35
63 | PFSAWYNNNTLTYSIDCINF | 0.58 ± 0.19
64 | LSRPVDNSCLESMRRVDWTH | -0.444 ± 1.2
65 | TCIWDKPVSSGL | -0.543 ± 1
66 | IIEIFVDIRYHFMY | 1.91 ± 0.38
67 | LLMVREDRRRFRSFGS | 0.773 ± 0.76
68 | PGKRHGFMLRDFAMPKLSYH | -0.918 ± 0.59
69 | YKYINSVQIYEHV | 4.19 ± 0.13
70 | GLMVHRDFGIECLQHETHFG | 0.074 ± 0.26
71 | SFESVVIVLKLNALFPCVST | -0.048 ± 0.28
72 | SFYCSHEVYLCNALYIDRVR | 3.67 ± 0.098
73 | ISHKQITTDSSNTVRVYGGN | -0.122 ± 1.6
74 | TIWCVD | 1.01 ± 0.28
75 | VNRFANVLRR | 0.234 ± 0.29

Row | Substance | amyloid nucleation score
76 | VLNLIRRGIWGYHHEMGTG | -0.947 ± 0.81
77 | NMLVRKAG | -0.036 ± 0.73
78 | LRRLEGLMSLGSFKFSPYGP | 0.227 ± 1.2
79 | PLYSYADEVVDGKGSCERNC | 0.946 ± 0.5
80 | KDVFPILGFCSAYLPYAWSA | -0.474 ± 0.29
81 | FHVIGSARTLVVAQYLK | inactive
82 | LWSPSQ | 0.202 ± 0.56
83 | ARYGVSGHAYDTNPRRYFGQ | -0.903 ± 2.4
84 | VMKLAVRR | -0.114 ± 0.91
85 | LHGPVFYKFACVVASPWGSI | -0.235 ± 0.41
86 | CPLAIVDTVHCRNSSSFSQ | -0.488 ± 0.45
87 | GKFDSGYVKGTVHNEAEFQP | -0.223 ± 0.31
88 | TEFFGVGLRMKSNGVWWISG | -0.65 ± 1.4
89 | GRGTGAVFVYVEWSLYGN | -0.036 ± 0.47
90 | AGYAYSGIVAGAYWIFCNYE | 1.12 ± 0.85
91 | VGWASQKINYWLETSGF | 0.329 ± 0.68
92 | EKELIK | 1.1 ± 0.61
93 | VAVQRPIFIVMWPQNLCISA | 3.69 ± 0.13
94 | TSLVVYYTSWV | -1.55 ± 2.4
95 | LLNEDYTGHSCDPEGEDTR | 0.589 ± 0.52
96 | AFLIIMSGSGNCICLRSLVS | -0.385 ± 0.3
97 | YRCCFLKNNPAWVQFSLRLR | -0.436 ± 0.36
98 | SPLFLVWLTCYKQDPFILVW | inactive
99 | ARHRDALFRCEDMFGKVQYS | -0.296 ± 0.56
100 | EGDYNGGCCQGLLNCQ | -0.562 ± 0.56

Row | Substance | amyloid nucleation score
101 | GVRAVLFETWCRN | -0.693 ± 1
102 | TVCRSLSRLERHLR | 0.068 ± 0.63
103 | SYILCHWTFGDKGRFPQNYR | 2.3 ± 0.18
104 | AFSANF | 0.779 ± 0.42
105 | YARVGKRNGSRNPYFINWGR | -0.733 ± 1.3
106 | SDELVQSTASGLFYASMGFK | 1.75 ± 0.76
107 | NVILKDLQVYPEKAVSINRY | 1.05 ± 0.32
108 | YIAVGV | 0.015 ± 0.62
109 | TPLWKSII | -0.046 ± 0.68
110 | NLRYSFFFNSDNSRVWECS | 0.682 ± 0.35
111 | YFSKTISFLFSFNSCYEFIK | 1.19 ± 0.44
112 | MCVGRDISGEWSYYQCMVEL | 0.495 ± 0.28
113 | MIWVWNRYIIPYFRFCGATL | 0.268 ± 1.2
114 | SFEFGSSGRICVCIMFPVER | 1.08 ± 0.56
115 | FIWDAWLGRKVSESHTVFHS | 0.017 ± 0.21
116 | LCAARNFSL | -0.277 ± 0.5
117 | LCFVPGS | 3.73 ± 0.073
118 | LIENTGLHRENISRAPGGR | -0.469 ± 0.83
119 | QEGRSFRGYTMVKYVFISRY | 1.38 ± 0.5
120 | MRAFGVNGTVQRWWGSCSRF | 0.766 ± 0.46
121 | AWYMPIWFLAYFL | 1.24 ± 0.14
122 | GCDTQLQMGLFMSYIMNTSV | -0.621 ± 1.1
123 | RFQTGPTLCSPQTEWPVLLN | 0.987 ± 0.56
124 | FTQKIFQTFFDHAYNWFSRV | 0.918 ± 0.46
125 | SQVGYGSRDLEFTWWCGGNG | -0.278 ± 0.58

Row | Substance | amyloid nucleation score
126 | DWPMELLASYMTPMLVTRV | inactive
127 | FKSTPVFKQWRNGGTDGLTG | -0.958 ± 1.5
128 | VHAHVSREIFTGQ | 0.659 ± 1
129 | LFLHPMYMMKAASASGITVV | -0.1 ± 0.57
130 | FSCKSAPQFCRWG | 0.718 ± 0.42
131 | RSYSTCFPLIVLSK | 0.303 ± 0.28
132 | NNFSCMDHILSMVKLWDVFG | -0.847 ± 0.59
133 | IRKFLFLFNALLSAPLLFHK | -0.2 ± 1.1
134 | GFVILDSNPLRFNCFWVDAF | 0.325 ± 0.29
135 | HYGAKCGGPRAWGRDTDR | 0.156 ± 0.69
136 | AAGHVAVAIRNRVVIARSRT | 3.4 ± 0.11
137 | TIVGWSITIVRLHSFIFFNG | 0.021 ± 0.35
138 | FKYTHIETVIQVLYFRTWSY | -0.485 ± 0.33
139 | VMSVSWVCIGCLSEDISWVF | 5.884 ± 0.044
140 | TALESFRHCLVQSNPGSQVV | -0.217 ± 0.5
141 | YVSCFRG | 0.925 ± 0.3
142 | AVLLCRSESCCKYSAIANSG | -1.22 ± 0.69
143 | YSCGGSDSWGTTNSNLGFRH | -0.751 ± 0.66
144 | FRSLMLLDFTYHVVSGLRYK | -0.609 ± 1.9
145 | ILVSQCRRLVYFVGSVCFST | 0.622 ± 0.53
146 | LPGFWPFMSDTPLGHQIVA | -1.07 ± 1.6
147 | PSTRRVGDWDFLTSSTGRTM | -0.403 ± 0.35
148 | VSGAIRRDYIFDVIGRPTV | inactive
149 | AFFSAKIKAPFNDVFGYGFV | 0.289 ± 0.33
150 | PVHVLYFTWMNQECCGHNYL | 6.5 ± 0.07

Row | Substance | amyloid nucleation score
151 | ADSFSI | -0.118 ± 0.44
152 | YNNLIPTYHHWGSFHMV | 1.32 ± 0.68
153 | HITMRLFTPYLTYNMPMSLK | 0.063 ± 0.24
154 | SNEVVKFKWSCIPETCSRVW | 0.429 ± 0.61
155 | MLLWQRSGMQLLAGLSHRVR | -0.702 ± 0.99
156 | LLYSERTIIPVDRYT | -0.686 ± 0.48
157 | HSCEPVMLVLNMNR | 8.159 ± 0.072
158 | RWIPQNMHQLWKASDGNERM | -0.697 ± 0.41
159 | VVYIHFAII | 0.439 ± 0.69
160 | GGALSCVRDF | 1.39 ± 0.78
161 | AMPYCGK | 0.575 ± 0.36
162 | FMRSATCKVWNL | -0.079 ± 0.51
163 | WIHIVYGFWSWVWGI | -0.327 ± 0.47
164 | YVFSCTGLNR | -1.03 ± 1
165 | SNWYRPTDAARLSLSYSRGG | -0.883 ± 1.1
166 | INETLYRTFSRL | -0.471 ± 0.56
167 | GWVLCRGSLFIWWFWTSLRL | -0.106 ± 1.2
168 | YCDAYPGRKTEILVVQLF | 5.6 ± 0.064
169 | LSSNSYQDVSVCQGFLFFVA | 3.36 ± 0.15
170 | KQLDINRLTSDMS | inactive
171 | CVGGWWKTRHMSIWNWIWWL | 0.197 ± 0.9
172 | VLVKQGVMA | 0.868 ± 0.78
